# Measured values taken from patent publication US20220127350A1 (NUMAB THERAPEUTICS, published 2022).
# B1: A3 (trispecific tribody, Fab-(scFv)2) (other)
# light: DIQMTQSPSSLSASVGDRVTITCQSSESVYSNNQLSWYQQKPGQPPKLLIYDASDLASGVPSRFSGSGSGTDFTLTISSLQPEDFATYYCAGGFSSSSDTAFGGGTKLTVLGRTRTVAAPSVFIFPPSDEQLKSGTASVVCLLNNFYPREAKVQWKVDNALQSGNSQESVTEQDSKDSTYSLSSTLTLSKADYEKHKVYACEVTHQGLSSPVTKSFNRGECGGGGSGGGGSDIQMTQSPSSLSASVGDRVTINCQASESISSWLAWYQQKPGKRPKLLIYKASTLASGVPSRFSGSGSGTDYTLTISSLQPEDFATYYCQGYYLDSSVDDNVFGGGTKLTVLGGGGGSGGGGSGGGGSGGGGSEVQLVESGGGLVQPGGSLRLSCAASGIDFSTYGISWVRQAPGKGLEWIAYIYPDYGITDYASWVNGRFTISLDNAQNTVYLQMNSLRAEDTAVYYCARSGSYYSRGWGAHYFNLWGQGTLVTVSS
# heavy: EVQLVESGGGLVQPGGSLRLSCAASGFSLSSNAMGWVRQAPGKGLEYIGIISVGGFTYYASWAKGRFTISRDNSKNTVYLQMNSLRAEDTATYFCARDRHGGDSSGAFYLWGQGTLVTVSSASTKGPSVFPLAPSSKSTSGGTAALGCLVKDYFPEPVTVSWNSGALTSGVHTFPAVLQSSGLYSLSSVVTVPSSSLGTQTYICNVNHKPSNTKVDKKVEPKSCGGGGSGGGGSDIQMTQSPSSLSASVGDRVTITCQASQTINYWLAWYQQKPGKAPKLLIYRASTLASGVPSRFSGSGSGTDFTLTISSLQPEDFATYYCQNYYYSTSRSYGFGGGTKLTVLGGGGGSGGGGSGGGGSGGGGSEVQLVESGGGLVQPGGSLRLSCAASGFSFSSDYWMCWVRQAPGKGLEWIGCIYAGDVDDTDYASWARGRFTISRDNSKNTVYLQMNSLRAEDTAVYYCARVDGFDITYFDLWGQGTLVTVSS
# notes: Trispecific anti-IL-17A x TNFα x HSA tribody; Expressed in CHO-S
# B2: A4 (trispecific tribody, Fab-(scFv)2) (other)
# light: DIQMTQSPSSLSASVGDRVTITCQASQTINYWLAWYQQKPGKAPKLLIYRASTLASGVPSRFSGSGSGTDFTLTISSLQPEDFATYYCQNYYYSTSRSYGFGGGTKLTVLGRTRTVAAPSVFIFPPSDEQLKSGTASVVCLLNNFYPREAKVQWKVDNALQSGNSQESVTEQDSKDSTYSLSSTLTLSKADYEKHKVYACEVTHQGLSSPVTKSFNRGECGGGGSGGGGSDIQMTQSPSSLSASVGDRVTINCQASESISSWLAWYQQKPGKRPKLLIYKASTLASGVPSRFSGSGSGTDYTLTISSLQPEDFATYYCQGYYLDSSVDDNVFGGGTKLTVLGGGGGSGGGGSGGGGSGGGGSEVQLVESGGGLVQPGGSLRLSCAASGIDFSTYGISWVRQAPGKGLEWIAYIYPDYGITDYASWVNGRFTISLDNAQNTVYLQMNSLRAEDTAVYYCARSGSYYSRGWGAHYFNLWGQGTLVTVSS
# heavy: EVQLVESGGGLVQPGGSLRLSCAASGFSFSSDYWMCWVRQAPGKGLEWIGCIYAGDVDDTDYASWARGRFTISRDNSKNTVYLQMNSLRAEDTAVYYCARVDGFDITYFDLWGQGTLVTVSSASTKGPSVFPLAPSSKSTSGGTAALGCLVKDYFPEPVTVSWNSGALTSGVHTFPAVLQSSGLYSLSSVVTVPSSSLGTQTYICNVNHKPSNTKVDKKVEPKSCGGGGSGGGGSDIQMTQSPSSLSASVGDRVTITCQSSESVYSNNQLSWYQQKPGQPPKLLIYDASDLASGVPSRFSGSGSGTDFTLTISSLQPEDFATYYCAGGFSSSSDTAFGGGTKLTVLGGGGGSGGGGSGGGGSGGGGSEVQLVESGGGLVQPGGSLRLSCAASGFSLSSNAMGWVRQAPGKGLEYIGIISVGGFTYYASWAKGRFTISRDNSKNTVYLQMNSLRAEDTATYFCARDRHGGDSSGAFYLWGQGTLVTVSS
# notes: Trispecific tribody
# B3: A6 (trispecific scDb-scFv) (other)
# chain: DIQMTQSPSSLSASVGDRVTITCQASQTINYWLAWYQQKPGKAPKLLIYRASTLASGVPSRFSGSGSGTDFTLTISSLQPEDFATYYCQNYYYSTSRSYGFGGGTKLTVLGGGGGSEVQLVESGGGLVQPGGSLRLSCAASGFSLSSNAMGWVRQAPGKGLEYIGIISVGGFTYYASWAKGRFTISRDNSKNTVYLQMNSLRAEDTATYFCARDRHGGDSSGAFYLWGQGTLVTVSSGGGGSGGGGSGGGGSGGGGSDIQMTQSPSSLSASVGDRVTITCQSSESVYSNNQLSWYQQKPGQPPKLLIYDASDLASGVPSRFSGSGSGTDFTLTISSLQPEDFATYYCAGGFSSSSDTAFGGGTKLTVLGGGGGSEVQLVESGGGLVQPGGSLRLSCAASGFSFSSDYWMCWVRQAPGKGLEWIGCIYAGDVDDTDYASWARGRFTISRDNSKNTVYLQMNSLRAEDTAVYYCARVDGFDITYFDLWGQGTLVTVSSGGGGSGGGGSDIQMTQSPSSLSASVGDRVTINCQASESISSWLAWYQQKPGKRPKLLIYKASTLASGVPSRFSGSGSGTDYTLTISSLQPEDFATYYCQGYYLDSSVDDNVFGGGTKLTVLGGGGGSGGGGSGGGGSGGGGSEVQLVESGGGLVQPGGSLRLSCAASGIDFSTYGISWVRQAPGKGLEWIAYIYPDYGITDYASWVNGRFTISLDNAQNTVYLQMNSLRAEDTAVYYCARSGSYYSRGWGAHYFNLWGQGTLVTVSS
# notes: Single chain
# Experiments:
# human TNFα [1] = target: T1, human TNFα (human, UniProt P01375 77-233); test: cell-based or functional assay
# human IL-17A [2] = target: T2, human IL-17A (human, UniProt Q16552 24-155, limits assumed); test: cell-based or functional assay
# human TNFα [3] = target: T1, human TNFα; test: cell-based or functional assay; remark: listed apart in the source
# human TNFα [4] = target: T1, human TNFα; test: SPR (summary table), affinity to human TNF
# Experimental: (§1) In this experiment, the biotinylated antigens were captured using the Biotin-CAPture kit from Biacore. After each analyte injection cycle the CAP sensor chip was regenerated and new antigen was captured. Trispecific molecules were injected as analyte using a dose response multicycle kinetic assay with concentrations of the analyte ranging from 0.35 to 90 nM diluted in running buffer. Obtained sensorgrams were fitted using the 1:1 binding model.
# human serum albumin [5] = target: T3, human serum albumin (human, UniProt P02768 25-609); test: SPR (summary table), affinity to HSA at pH 5.5
# T3 construct: also called HSA
# Experimental: (§2) The binding to human serum albumin (HSA) and cynomolgus serum albumin (CSA) was assessed for purified trispecific molecules by running SPR spectroscopy on a MASS-1 device (Sierra Sensors). HSA was directly immobilized on a high capacity amine sensor chip (Sierra Sensors) and trispecific molecules were injected as analyte using a dose response multicycle kinetic assay with concentrations of the analyte ranging from 0.35 to 90 nM diluted either in running buffer at pH5.5 or pH7.5. Obtained sensorgrams were fitted using the 1:1 binding model. Affinity to CSA was assessed in a similar approach using a CSA immobilized sensor chip.
# human IL-17A [6] = target: T2, human IL-17A; test: SPR (summary table), affinity to human IL-17, capture setup
# Experimental: as §1
# human serum albumin [7] = target: T3, human serum albumin; test: SPR (MASS-1), HSA immobilised, trispecific as analyte, pH 5.5
# Experimental: as §2
# human serum albumin [8] = target: T3, human serum albumin; test: SPR (MASS-1), HSA immobilised, trispecific as analyte, pH 7.4
# Experimental: as §2
# human IL-17A [9] = target: T2, human IL-17A; test: SPR (MASS-1), trispecific immobilised, antigens injected sequentially
# Experimental: (§3) All possible sequences of antigen injection were tested resulting in six possible sequences.
# (§4) To evaluate concomitant binding of each antigen to trispecific molecules, the binding level relative to the theoretical Rmax was calculated for each injection using the respective ligand and analyte molecular masses and the immobilization level of the trispecific molecules. The average of the maximum binding relative to theoretical Rmax for each antigen was obtained by averaging individual maximum binding relative to theoretical Rmax obtained for the two injections where the respective antigen was injected as first analyte (in the absence of other bound antigens). Next, the binding relative to the theoretical Rmax of each analyte injection was compared to its average maximum binding to calculate the fraction binding obtained in the presence of other bound antigens. […] The binding levels relative to the theoretical Rmax and the average of maximum binding (binding levels in the absence of other antigens) of each antigen were calculated.
# human TNFα [10] = target: T1, human TNFα; test: as above
# Experimental: as §3, §4
# human serum albumin [11] = target: T3, human serum albumin; test: as above
# Experimental: as §3, §4
# human IL-17A [12] = target: T2, human IL-17A; test: competitive ELISA, blocking of IL-17A/IL-17RA interaction (summary table)
# Experimental: (§5) Finally, Tetramethylbenzidine solution was added to develop the plate for 5 to 10 minutes and the reaction was stopped with 1 M HCl. The plate was read at 450 nm and 570 nm (reference wavelength).
# human IL-17A [13] = target: T2, human IL-17A; test: SPR (Biacore T200), biotinylated antigen captured (Biotin-CAPture), trispecific as analyte;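 further: multicycle dose-response kinetics, analyte at 0.35–90 nM in running buffer, CAP chip regenerated with fresh antigen each cycle, sensorgrams fitted to a 1:1 binding model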
# Experimental: as §1
# human TNFα [14] = target: T1, human TNFα; test: as above
# Experimental: as §1
# human IL-17A [15] = target: T2, human IL-17A; test: competitive ELISA: IL-17RA coated, biotinylated IL-17A preincubated with trispecific molecule
# Experimental: as §5
# human IL-17A [16] = target: T2, human IL-17A; test: competitive ELISA: biotinylated human IL-17A preincubated with the trispecific molecule, then binding to coated IL-17RA detected (blocked ligand: IL-17RA) [left panel]
# human serum albumin [17] = target: T3, human serum albumin; test: SPR (MASS-1), trispecific immobilised, HSA injected as last analyte
# Experimental: as §3, §4
# human IL-17A [18] = target: T2, human IL-17A; test: competitive ELISA: biotinylated human IL-17A preincubated with the trispecific molecule, then binding to coated IL-17RA detected (blocked ligand: IL-17RA) [right panel]
Binder,"IC50 in L929 assay, cell viability (human TNFα [1]) [nM]","rel. IC50 in L929 assay (IC50, A13/IC50, test sample, nM) (human TNFα [1])","rel. IC50 to secukinumab (ng/ml) in HT-29 assay, +HSA (human IL-17A [2])","rel. IC50 to secukinumab (ng/ml) in HT-29 assay, -HSA (human IL-17A [2])","rel. IC50 to A13 (nM) in HT-29 assay, +HSA (human TNFα [3])","rel. IC50 to A13 (nM) in HT-29 assay, -HSA (human TNFα [3])",Kd (human TNFα [4]) [nM],Kd (human serum albumin [5]) [nM],Kd (human IL-17A [6]) [nM],Kd (human serum albumin [7]) [nM],koff (human serum albumin [7]) [s⁻¹],kon (human serum albumin [7]) [M⁻¹ s⁻¹],Kd (human serum albumin [8]) [nM],koff (human serum albumin [8]) [s⁻¹],kon (human serum albumin [8]) [M⁻¹ s⁻¹],antigen binding relative to average maximum binding (human IL-17A [9]) [%],antigen binding relative to average maximum binding (human TNFα [10]) [%],antigen binding relative to average maximum binding (human serum albumin [11]) [%],"rel. IC50 (IC50, secukinumab/IC50, test sample, ng/ml) (human IL-17A [12])",Kd (human IL-17A [13]) [nM],further results
B1,4.5,0.003,11.8,2.4,0.5,0.2,< 0.0232,0.947,1.53,0.947,0.00059,623000,1.37,0.000557,406000,≥ 70,≥ 70,≥ 70,2.2,1.53,"koff (human IL-17A [13]): 9.04e-05 s⁻¹; kon (human IL-17A [13]): 59100 M⁻¹ s⁻¹; Kd (human TNFα [14]): < 0.0232 nM; koff (human TNFα [14]): < 1e-06 s⁻¹; kon (human TNFα [14]): 43100 M⁻¹ s⁻¹; rel. IC50 to secukinumab (IC50, secukinumab/IC50, test sample, ng/ml) (human IL-17A [15]): 2.2; IC50 (read off the curve) (human IL-17A [16]): ~9 ng/mL"
B2,0.08,0.2,6,7.1,0.3,0.6,0.257,1.67,0.337,1.67,0.000308,185000,4.79,0.000417,87200,≥ 70,≥ 70,≥ 70,6.3,0.337,"relative binding level compared to average maximum binding (human serum albumin [17]): ~70%; koff (human IL-17A [13]): 7.23e-05 s⁻¹; kon (human IL-17A [13]): 215000 M⁻¹ s⁻¹; Kd (human TNFα [14]): 0.257 nM; koff (human TNFα [14]): 2.33e-05 s⁻¹; kon (human TNFα [14]): 90800 M⁻¹ s⁻¹; rel. IC50 to secukinumab (IC50, secukinumab/IC50, test sample, ng/ml) (human IL-17A [15]): 6.3; IC50 (read off the curve) (human IL-17A [16]): ~3 ng/mL"
B3,0.06,0.2,26.8,30,1,0.6,0.0237,0.77,0.414,0.77,0.000365,475000,1.25,0.000332,266000,≥ 70,≥ 70,≥ 70,10,0.414,"relative binding level compared to average maximum binding (human serum albumin [17]): ~70%; koff (human IL-17A [13]): 8.96e-05 s⁻¹; kon (human IL-17A [13]): 216000 M⁻¹ s⁻¹; Kd (human TNFα [14]): 0.0237 nM; koff (human TNFα [14]): 2.66e-06 s⁻¹; kon (human TNFα [14]): 112000 M⁻¹ s⁻¹; rel. IC50 to secukinumab (IC50, secukinumab/IC50, test sample, ng/ml) (human IL-17A [15]): 10; IC50 (read off the curve) (human IL-17A [18]): ~5 ng/mL"
